Measured values reported in patent publication US20080058272A1 (published 2008).
Like-named read-outs stand apart in the source and are kept apart here.

Key:
HLA-A2 [1] = biological target: T1, HLA-A2 (human, UniProt P04439 25-302 at identity 0.94)); experiment: competitive binding assay (flow cytometry)
T1 chain: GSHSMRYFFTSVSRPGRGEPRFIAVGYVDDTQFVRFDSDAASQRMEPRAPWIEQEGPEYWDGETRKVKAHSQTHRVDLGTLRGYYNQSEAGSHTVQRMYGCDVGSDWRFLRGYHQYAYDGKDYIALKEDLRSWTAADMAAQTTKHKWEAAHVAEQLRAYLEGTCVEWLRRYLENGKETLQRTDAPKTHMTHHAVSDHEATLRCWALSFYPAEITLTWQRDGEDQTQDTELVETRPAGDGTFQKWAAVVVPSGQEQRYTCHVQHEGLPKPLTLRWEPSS

HLA-A2 [2] = biological target: T1, HLA-A2; experiment: competitive binding assay (flow cytometry)

Binder: KILEENKEL [FAPα^486-494]
- IC50 (HLA-A2 [1]): 33.8 µM
- IC50 (HLA-A2 [2]): 33.8 µM

Binder: GLFKCGIAV [FAPα^639-647]
- IC50 (HLA-A2 [1]): 5.6 µM

Binder: LLYAVYRKL [FAPα^584-592]
- IC50 (HLA-A2 [1]): 13.3 µM

Binder: YLESDYSKL [FAPα^113-121]
- IC50 (HLA-A2 [1]): 8 µM

Binder: GLSPDRQFV [FAPα^104-112]
- IC50 (HLA-A2 [1]): 9.1 µM

Binder: ALVCYGPGI [FAPα^463-471]
- IC50 (HLA-A2 [1]): 4.7 µM
- IC50 (HLA-A2 [2]): 4.7 µM

Binder: YLASKEGMV [FAPα^560-568]
- IC50 (HLA-A2 [1]): 15.3 µM
